One assay deals with Bcl-2 and Bfl-1. The experiment in a line: Anti-apoptotic protein expression in ARPE-19 cells under serum starvation/H2O2/TNFα oxidative stress (Western blot). The class given is cell-based, human. Particulars: DHA 10 to 50 nM, with or without PEDF. The procedure:
(§1) Exposure of ARPE-19 cells to growth factors. Cells at 75-80% confluence (72 hr growth in DMEM/F12+10% FBS) were serum-starved for 2 hr before exposure to growth factors. The serum-starved cells were treated with TNF-α (Sigma-Aldrich Corporation, St. Louis, Mo.) (10 ng/ml) and H2O2 (600 μM) to induce oxidative stress and challenged with increasing concentrations (10, 30, 50 nM) and PEDF (Chemicon International, Temecula, Calif.) (50 ng/ml) simultaneously with oxidative stress for 4 hr before harvesting for protein analysis. Cell extracts were made and protein concentrations were adjusted by Bio-Rad protein reagent and used for Western-blot analysis. […] Cells were analyzed to detect Hoechst-positive apoptotic cells.
(§2) Analysis of Bcl-2 and caspase-3 cleavage. Bcl-2 protein and caspase-3 cleavage were analyzed by Western-blot analysis. […] The membranes were probed with primary antibodies against Bcl-2 (Santa Cruz Biotechnology, Inc., Santa Cruz, Calif.) and cleaved caspase-3 (Asp-175) (Cell Signaling) at room temperature and treated for 20 minutes with the secondary antibody, goat anti-rabbit IgG: horseradish peroxidase, and horseradish peroxidase-conjugated anti-biotin antibody, then proteins were detected by using an ECL kit (Amersham Biosciences, Buckinghamshire, United Kingdom). […]

For assay [1], the system named is NPD1 synthesis. Kind of assay: NPD1 synthesis and release from polarized primary human RPE cell monolayers (lipidomic analysis). Format: cell-based. The note with it: 72 hr. The method, then:
Human RPE cells. Cultures of retinal pigment epithelial (RPE) cells were prepared. RPE cells were seeded onto Millicell-HA culture plate inserts (Millipore, Bradford, Mass.), placed in 24-well plates, and allowed to reach confluence. Consent for use of tissue for research was obtained in compliance with Federal and State law and institutional regulations. Cultures were maintained in Chee's essential replacement medium until the experiments were performed as described in J. Hu and D. Bok (2001) Mol Vis 7:14-19. The medium includes Eagle's minimal essential medium with calcium (MEM, Irvine Scientific, Irvine, Calif.), 1% heat-inactivated calf serum (JRH Bioscience, Lennexo, Kans.), amino acid supplements, and 1% bovine retinal extract. The Millicell-HA filter inserts allow separate manipulation of the culture media bathing the apical and basal surfaces of the RPE monolayer and measurement of the transepithelial resistance (TER), which provides a measure of cell differentiation and confluency. Cultures were used for experiments once they developed a TER of at least 400 Ω·cm^2, as measured by an Epithelial Volt-ohmmeter (EVOM, World Precision Instruments, New Haven, Conn.).
Exposure of RPE cells to growth factors. […] […] The lower chamber was filled with 500 μl media (bathing the basal cell monolayer surface) containing 0.1% HSA. Cells were incubated for 72 hours, then apical and basal media were removed and collected for analysis. After allowing the cells to rest for at least 72 hours on fresh media, the experiments were repeated.
Lipidomic analysis. Human RPE primary cell cultures or ARPE-19 cells were separated from culture media and washed with 1 ml PBS. After addition of 1 ml methanol, cells were scraped from plates or millicell membranes and collected for lipid extraction. Media was spun-down to separate cell debris, then 350 μl were collected in 1 ml of cold chloroform:methanol (1:1). Protein precipitates were then separated by centrifugation at 1500×g (5 min, 4° C.). Lipid extracts were collected, and kept under nitrogen at −80° C. until solid-phase purification; extracts were pre-equilibrated at pH 3.0 in 10% methanol/water, then loaded to 500 mg C18 columns (Varian, Inc., Palo Alto, Calif.), and eluted with 1% methanol/ethyl acetate. Eluates were concentrated on a N2 stream evaporator. Samples were loaded to a liquid chromatograph-tandem mass spectrometer (LC-TSQ Quantum, Thermo-Finnigan; Thermo Fisher Scientific, Waltham, Mass.) installed with a Biobasic-AX column (Thermo-Hypersil-Keystone, Thermo Fisher Scientific, Waltham, Mass.) (100 mm\2.1 mm, 5-μm particle sizes), and eluted in a linear gradient [100% solution A (40:60:0.01 methanol/water/acetic acid pH 4.5) to 100% solution B (99.99:0.01 methanol/acetic acid)], at a flow rate of 300 μl/min for 30 minutes. LC effluents were diverted to an electro-spray-ionization probe (ESI) on a TSQ Quantum (Thermo-Finnigan, Thermo Fisher Scientific, Waltham, Mass.) triple quadrupole mass spectrometer. NPD1 and resolving D1 were obtained by biogenic synthesis as described in N. G. Bazan, D. L. Birkle, and T. S. Reddy (1984) Biochem Biophys Res Commun. 125:741-74, and V. L. Marcheselli et al. (2003) J. Biol. Chem. 278:43807-43817. Erratum in: (2003) J Biol Chem 278:51974. Other lipid standards (Cayman Chem. Ann Arbor, Mich.) were used for tuning and optimization and to create calibration curves. The instrument was set on full-scan mode, to detect parent ions, and selected reaction mode (SRM) for quantitative analysis, to detect product ions, simultaneously. The selected parent/product ions (m/z) and collision energy (v) obtained by running on negative ion detection mode were: 359.2/153.1/20 for NPD1, 343.2/281.2/18 for resolving D1, 351.2/195.0/22 for 20HO-LTB4 (used as internal standard), 327.2/283.3/16 for DHA, 311.3/267.3/20 Arachidonic Acid-d8 (used as internal standard, IS).
Neurotrophins activated NPD1 synthesis in cultured primary human RPE cells. […]

The subject of assay [2] is NPD1 synthesis. Kind of assay: NPD1 synthesis in cultured ARPE-19 cells (lipidomic analysis). Particulars: serum starvation/H2O2/TNFα oxidative stress for the combination. Format: cell-based, human. The procedure:
Exposure of ARPE-19 cells to growth factors. Cells at 75-80% confluence (72 hr growth in DMEM/F12+10% FBS) were serum-starved for 2 hr before exposure to growth factors. The serum-starved cells were treated with TNF-α (Sigma-Aldrich Corporation, St. Louis, Mo.) (10 ng/ml) and H2O2 (600 μM) to induce oxidative stress and challenged with increasing concentrations (10, 30, 50 nM) and PEDF (Chemicon International, Temecula, Calif.) (50 ng/ml) simultaneously with oxidative stress for 4 hr before harvesting for protein analysis. Cell extracts were made and protein concentrations were adjusted by Bio-Rad protein reagent and used for Western-blot analysis. To study neuroprotection by DHA and PEDF in the oxidative stress-induced ARPE-19 cells, 72 hr cells were serum-starved for 8 hr before the introduction of oxidative stress and challenged with DHA and PEDF for 15 hr. Cells were analyzed to detect Hoechst-positive apoptotic cells.
Lipidomic analysis. Human RPE primary cell cultures or ARPE-19 cells were separated from culture media and washed with 1 ml PBS. After addition of 1 ml methanol, cells were scraped from plates or millicell membranes and collected for lipid extraction. […] The instrument was set on full-scan mode, to detect parent ions, and selected reaction mode (SRM) for quantitative analysis, to detect product ions, simultaneously. […]

For a further assay, the system named is Bid, Bax, and Bad. The experiment in a line: Pro-apoptotic protein expression in ARPE-19 cells under serum starvation/H2O2/TNFα oxidative stress (Western blot). The class given is cell-based, human. The note with it: DHA 10 to 50 nM, with or without PEDF. The method, then:
as §1, §2
In general terms: In western blotting, separated proteins are transferred to a membrane and probed.

B1: PEDF: pigment epithelium-derived factor, a member of the serine protease inhibitor (serpin) family (protein, UniProt P36955 20-418, looked up)
Pigment epithelium-derived …: QNPASPPEEGSPDPDSTGALVEEEDPFFKVPVNKLAAAVSNFGYDLYRVRSSTSPTTNVLLSPLSVATALSALSLGAEQRTESIIHRALYYDLISSPDIHGTYKELLDTVTAPQKNLKSASRIVFEKKLRIKSSFVAPLEKSYGTRPRVLTGNPRLDLQEINNWVQAQMKGKLARSTKEIPDEISILLLGVAHFKGQWVTKFDSRKTSLEDFYLDEERTVRVPMMSDPKAVLRYGLDSDLSCKIAQLPLTGSMSIIFFLPLKVTQNLTLIEESLTSEFIHDIDRELKTVQAVLTVPKLKLSYEGEVTKSLQEMKLQSLFDSPDFSKITGKPIKLTQVEHRAGFEWNEDGAGTTPSPGLQPAHLTFPLDYHLNQPFIFVLRDTDTGALLFIGKILDPRGP
Take B1: in the assay with Bcl-2 and Bfl-1, the “Bcl-2 and Bfl-1 anti-apoptotic protein expression” value was “unable to alter the expression of pro- and anti-apoptotic proteins”. The “NPD1 synthesis and release through the apical surface” value with NPD1 synthesis [1] (growth factors 20 ng/ml added to apical medium) is given as “by far the most potent stimulator of NPD1 synthesis”. In the assay on NPD1 synthesis [1] (increasing concentrations), the “NPD1 release, neurotrophin added to the apical medium” value is “concentration-dependent increases in NPD1 release only on the apical side” and the “NPD1 release, neurotrophin added to the basal medium” value is “much less NPD1 release on the apical side”. The “NPD1 synthesis in ARPE-19 cells” value with NPD1 synthesis [2] is “up-regulate NPD1 synthesis”. Besides, the “Bid, Bax and Bad pro-apoptotic protein expression” value with Bid, Bax, and Bad is “unable to alter the expression of pro- and anti-apoptotic proteins”.
